Experimental data as given in patent US7223902B1, “Method of producing recombinant Aspergillus niger β-glucosidase and an aroma spreading plant” (Yissum Research Development Company of the Hebrew …, priority 1999, dated 2007).

How the values were obtained:
[1] = molecular target: A. niger β-Glucosidase (BGL1); experiment: Inactivation of A. niger β-glucosidase by 2FGlcF, residual activity with DNPGlc; type: biochemical, Aspergillus niger; conditions: 30 mM citrate buffer pH=4.8, 50° C., 0.5-6 mM inactivator
Description: Pure A. niger β-Glucosidase enzyme (0.47 mg/ml) was incubated in the presence of various concentrations of 2-deoxy-2-fluoro-β-glucosyl fluoride (2FGlcF, 0.5-6 mM) in 30 mM citrate buffer pH=4.8 at 50° C. Residual enzyme activity was determined at different time intervals by addition of an aliquot (10 μl) of the inactivation mixture, to a solution containing citrate buffer (30 mM, pH=4.8), BSA (8 μg) and 2,4-dinitrophenyl β-D-glucopyranoside (DNPGlc, 0.625 mM, 830 μl). Release of DNP was determined spectrophotometrically by measuring the absorbance at 400 nm one minute after the addition of the substrate.
Enzyme was incubated in the presence of various concentrations of 2FGlcF and residual enzyme activity was monitored at different time intervals.

[2] = test system: 2-deoxy-2-fluoroglucosyl-BGL1; experiment: Reactivation of 2FGlcF-inactivated enzyme in the presence of linamarin; type: biochemical, Aspergillus niger; conditions: linamarin 0-16 mM, pH=4.8, 50° C., 0, 10, 20 and 30 min
Description: Reactivation rates were determined as follows: pure A. niger β-glucosidase (0.34 mg/ml) was preincubated with 2FGlcF (5 mM) for 15 min, after which the excess of the inactivator was diafiltered by 20-kDa nominal molecular mass cutoff centrifugal concentrators (Sartorius Inc., Goettingen, Germany). Samples of the purified, inactivated enzyme were incubated in the presence linamarin (0-16 mM) in citrate buffer (30 mM, pH=4.8) at 50° C. for 0, 10, 20 and 30 minutes, and the activity of each sample was determined using p-nitrophenyl β-D-glucopyranoside (pNPGlc) as a substrate.
Rates of reactivation of 2-deoxy-2-fluoroglucosyl-BGL1 were determined in the presence of different concentrations of linamarin by monitoring activity regain after 0, 10, 20 and 30 min (FIG. 9).

[3] = Determination of thermal stability of A. niger β-glucosidase (standard pNPGlc assay); type: physicochemical; conditions: for % activity: percent of enzyme solution kept at 4° C., pH=5
Description: Determination of Thermal Stability of A. niger β-Glucosidase:
Recombinant enzyme (40 μg/ml) was dissolved in 20 mM citrate phosphate buffer, pH=5. Each tested sample (8 μl) was covered by 15 μl mineral oil. The activity was determined by the standard pNPGlc assay (7).
Thermal stability of the recombinant enzyme was evaluated at different temperatures, presented as percent enzymatic activity relative to an enzyme solution kept at 4° C. Results obtained are summarized in Table 2 and illustrated in FIG. 10.

[4] = Quantitative β-glucosidase assay using pNPGlc as a substrate; type: biochemical
Description: Quantitative assays were performed using pNPGlc as a substrate according to Shoseyov (7).

[5] = SDS-PAGE activity gel staining (MUGlc) of transgenic tobacco plant extracts; type: biochemical, Nicotiana tabacum cv. Samson; conditions: number of tobacco regenerates with BGL1 activity
Description: Detection of β-glucosidase in polyacrylamide gels was carried out by washing the SDS-polyacrylamide gel with 1:1 isopropanol:PC buffer to remove SDS and renature the enzyme. The gel was washed once in PC buffer and incubated in a thin layer of a solution of 0.5 mM MUGlc. After incubation at 50° C. for one hour, the active protein band was visualized by UV light.
Western blot (40) and SDS-PAGE activity gel staining (37) were employed to screen successful transgenic lines, using the purified A. niger BGL1 protein as positive controls and non-transgenic plant as negative control.

Molecule: OC[C@H]1O[C@@H](F)[C@H](F)[C@@H](O)[C@@H]1O [2FGlcF, 2-deoxy-2-fluoro β-glucosyl fluoride]
- KI (inactivation) [1]: 35.4 mM
- pseudo-first order rate constant Ki for inactivation [1]: 4.5 min⁻¹

Molecule: CC(C)(C#N)O[C@@H]1O[C@H](CO)[C@@H](O)[C@H](O)[C@H]1O [linamarin]
- regain of activity of 2-deoxy-2-fluoroglucosyl-BGL1 [2]: followed a first order process

B1: recombinant BGL1: Recombinant Aspergillus niger B1 β-glucosidase (SEQ ID NO:2) expressed from bgl1 cDNA in P. pastoris, S. cerevisiae or E. coli (protein)
chain: MRFTLIEAVALTAVSLASADELAYSPPYYPSPWANGQGDWAQAYQRAVDIVSQMTLDEKVNLTTGTGWELELCVGQTGGVPRLGVPGMCLQDSPLGVRDSDYNSAFPAGMNVAATWDKNLAYLRGKAMGQEFSDKGADIQLGPAAGPLGRSPDGGRNWEGFSPDPALSGVLFAETIKGIQDAGVVATAKHYIAYEQEHFRQAPEAQGFGFNISESGSANLDDKTMHELYLWPFADAIRAGAGAVMCSYNQINNSYGCQNSYTLNKLLKAELGFQGFVMSDWAAHHAGVSGALAGLDMSMPGDVDYDSGTSYWGTNLTISVLNGTVPQWRVDDMAVRIMAAYYKVGRDRLWTPPNFSSWTRDEYGYKYYYVSEGPYEKVNQYVNVQRNHSELIRRIGADSTVLLKNDGALPLTGKERLVALIGEDAGSNPYGANGCSDRGCDNGTLAMGWGSGTANFPYLVTPEQAISNEVLKHKNGVFTATDNWAIDQIEALAKTASVSLVFVNADSGEGYINVDGNLGDRRNLTLWRNGDNVIKAAASNCNNTIVVIHSVGPVLVNEWYDNPNVTAILWGGLPGQESGNSLADVLYGRVNPGAKSPFTWGKTREAYQDYLVTEPNNGNGAPQEDFVEGVFIDYRGFDKRNETPIYEFGYGLSYTTFNYSNLEVQVLSAPAYEPASGETEAAPTFGEVGNASDYLYPSGLLRITKFIYPWLNGTDLEASSGDASYGQDSSDYLPEGATDGSAQPILPAGGGPGGNPRLYDELIRVSVTIKNTGKVAGDEVPQLYVSLGGPNEPKIVLRQFERITLQPSEETKWSTTLTRRDLANWNVEKQDWEITSYPKMVFVGSSSRKLPLRASLPTVH
modifications: Aspergillus niger
- % activity ([3]; 4 °C): 100%
- % activity ([3]; 50 °C): 91.5%
- % activity ([3]; 55 °C): 83.5%
- % activity ([3]; 60 °C): 68%
- % activity ([3]; 65 °C): 17.8%
- % activity retained ([3]; after 1 hour incubation at 60° C., percent activity of an enzyme kept at 4° C.): 68%
- activity maintained ([3]; temperature ranging from 4-60° C.): above 50%
- β-glucosidase activity ([4]; overexpressed in E. coli, E. coli extracts): No apparent β-glucosidase activity could be detected
- specific activity ([4]; secreted by P. pastoris to the medium, without further purification): 124 units/mg protein

B2: BGL1: BGL1 without a signal peptide expressed in tobacco plants (plasmid pJDB1, SEQ ID NO:14) (protein)
chain: DELAYSPPYYPSPWANGQGDWAQAYQRAVDIVSQMTLDEKVNLTTGTGWELELCVGQTGGVPRLGVPGMCLQDSPLGVRDSDYNSAFPAGMNVAATWDKNLAYLRGKAMGQEFSDKGADIQLGPAAGPLGRSPDGGRNWEGFSPDPALSGVLFAETIKGIQDAGVVATAKHYIAYEQEHFRQAPEAQGFGFNISESGSANLDDKTMHELYLWPFADAIRAGAGAVMCSYNQINNSYGCQNSYTLNKLLKAELGFQGFVMSDWAAHHAGVSGALAGLDMSMPGDVDYDSGTSYWGTNLTISVLNGTVPQWRVDDMAVRIMAAYYKVGRDRLWTPPNFSSWTRDEYGYKYYYVSEGPYEKVNQYVNVQRNHSELIRRIGADSTVLLKNDGALPLTGKERLVALIGEDAGSNPYGANGCSDRGCDNGTLAMGWGSGTANFPYLVTPEQAISNEVLKHKNGVFTATDNWAIDQIEALAKTASVSLVFVNADSGEGYINVDGNLGDRRNLTLWRNGDNVIKAAASNCNNTIVVIHSVGPVLVNEWYDNPNVTAILWGGLPGQESGNSLADVLYGRVNPGAKSPFTWGKTREAYQDYLVTEPNNGNGAPQEDFVEGVFIDYRGFDKRNETPIYEFGYGLSYTTFNYSNLEVQVLSAPAYEPASGETEAAPTFGEVGNASDYLYPSGLLRITKFIYPWLNGTDLEASSGDASYGQDSSDYLPEGATDGSAQPILPAGGGPGGNPRLYDELIRVSVTIKNTGKVAGDEVPQLYVSLGGPNEPKIVLRQFERITLQPSEETKWSTTLTRRDLANWNVEKQDWEITSYPKMVFVGSSSRKLPLRASLPTVH
- Activity gel positive [5]: 0
